Results reported in US20160319016A1 (GOVERNMENT OF THE UNITED STATES OF AMERICA AS REPRESENTED …, published 2016).

Molecular target: T1, CMG2 (UniProt P58335 34-489, limits assumed)
T1 construct: whole, on cells; also called ANTXR2; CHO/CMG2
Experiment: flow cytometry on CHO/CMG2 cells

T1 sequence (P58335 34-489 limits assumed): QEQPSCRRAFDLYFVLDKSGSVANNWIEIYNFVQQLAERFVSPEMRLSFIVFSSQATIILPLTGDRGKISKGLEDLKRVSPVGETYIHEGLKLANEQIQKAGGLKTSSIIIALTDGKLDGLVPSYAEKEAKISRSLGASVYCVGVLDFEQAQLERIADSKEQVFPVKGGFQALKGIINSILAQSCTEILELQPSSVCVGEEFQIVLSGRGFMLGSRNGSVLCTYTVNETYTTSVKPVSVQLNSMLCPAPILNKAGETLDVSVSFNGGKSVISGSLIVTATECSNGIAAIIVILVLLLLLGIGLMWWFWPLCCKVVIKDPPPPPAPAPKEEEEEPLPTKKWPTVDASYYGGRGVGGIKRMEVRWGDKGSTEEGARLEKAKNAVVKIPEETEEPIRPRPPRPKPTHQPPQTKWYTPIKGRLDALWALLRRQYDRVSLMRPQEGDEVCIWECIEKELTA

B1: AF334 anti-TEM8 monoclonal antibody (antibody, V domains shown)
VH: QVKLEESGAELVRPGVSVKISCKGSGYTFTDYAMHWVKQSHAKSLEWIGVISTYFGDATYNQKFKGKATMTVDKSSSTAYMELARLTSEDSAIYYCAREDYVPFAYWGQGTLVTVSA
VL: DIVMTQTPPSVPVTPGESVSISCRSSKSLLHSNGNTYLYWFLQRPGQSPQLLIYRMSNLASGVPDRFSGSGSGTAFTLRISRVEAEDVGVYYCMQHLEYPFTFGSGTKLEIKR
B1: no binding.
